This passage reports amyloid nucleation score results from the supplement of paper PMC12042874.

± gives the uncertainty stated by the source.

This data set in a line: amyloid nucleation score (Sup35N fusion, yeast selection) (log enrichment); library NNK1; higher = more nucleation; inactive = no reads after selection. The gist of the method:
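The nucleation score, computed with DiMSum, is the log enrichment of output over input reads, centred on the mode score of non-aggregating sequences. Sequences with under 100 input reads were dropped. Reads were generated by Illumina sequencing of plasmid inserts from psi-negative yeast with Sup35N fused to peptides of 20 random codons, induced with 100 μM copper sulfate for 24 hours and grown 7 days at 30°C on medium lacking adenine and uracil.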
For the substance NLMYAGIRLKGEICTNQVSF, the amyloid nucleation score was found to be 0.371 ± 0.16. Under RFCRHEMVFVLDLNTYISVP stands 0.887 ± 0.26; under RMMFCVVAESGFQVWEVRSG, -0.502 ± 0.42; under YAYYLSDRVCFD, 0.303 ± 0.4.

Consider RLHPCRVATRPQHYT, for which the amyloid nucleation score entry was “inactive”. Under FVYLR stands 0.98 ± 0.55; under HDLEIPICTWEYSVVIQGLQ, 0.005 ± 1.4; under CILSSHL, 2.61 ± 0.33. Under GCCSEDFNINGVFCSCPKFC stands 7.157 ± 0.057; under SIYDARRMVRVHTFHEGLL, -0.577 ± 1.4; under YACESGMEIMHYRHMSGGVV, 0.732 ± 1. Under FRLGPLEQ stands -1.61 ± 1.7; under SNYFVSVDRGIWSCCYMCSF, 7.474 ± 0.063; under QQSFVTSLVMYVDRYRFVQV, 0.809 ± 0.85.

YNPIVWSTAY: the amyloid nucleation score result is “inactive”. As to KPLILLCHLMGTMSTKCKDM, the amyloid nucleation score is -0.098 ± 0.26.

NNMSIWGMTVTEYLFITNMN had an amyloid nucleation score of 0.643 ± 0.53. Under VHVFSCLCPLLGSMIFLWMV stands -0.871 ± 0.68; under RAMKWLYVSNNDNMRKHFFS, -0.712 ± 0.42. Under ANGLMGSWSLEARSFRSDVL stands -0.179 ± 1.5; under TSPTYAYCYCLSTNRRQKCL, -0.957 ± 1.1.

The substance LNRSGIISITIMTWSFGNAQ registered an amyloid nucleation score of 2.75 ± 0.13.

For the substance DSFQGRS, the amyloid nucleation score amounted to 0.255 ± 0.47. Under TRVEFEQGVVFGELYSVFRV stands 0.351 ± 0.39; under GQFEHGVGVQQSSGSTQRWL, -1.21 ± 2.4. The substance SAVINFLRSQKLLNCGMGVT came in with an amyloid nucleation score of -0.529 ± 1.7. Under LAVFRCAARYYWNSFCLSRT stands 0.03 ± 0.21; under SSRDGTIRRGWIWVDVRVKS, 0.142 ± 0.48. Under TIDIV stands 2.28 ± 0.13; under FTSRRATCDIGNSMNACFER, 1.5 ± 0.73.

Turning to MINTTMRSDRRNNWLG, the amyloid nucleation score stood at 2.94 ± 0.064. Under VFLVGMFLIRRVAVN stands 0.72 ± 0.87; under VMRVAYNDT, 0.416 ± 0.36; under ETSSPLLEGG, 0.554 ± 0.55. Under TPGNVG stands 0.514 ± 0.26.

In turn, FYVMCSARSQHAFSNKYLGY returned an amyloid nucleation score of -0.165 ± 0.26. Under FCVSQVFRDLS stands -0.315 ± 0.37. Under FFNRTKTHEVDADGALSTL stands 0.508 ± 0.88.

In turn, DLNRSALSRDDGNSVILKCG showed an amyloid nucleation score of 0.653 ± 0.68. Under ACNTSSIYALTFVCHLSVGV stands 4.67 ± 0.057. AVSAFSTVKSSFGDGGIGFF gave an amyloid nucleation score of -0.398 ± 0.34. Under LREGTFRLRQVTTFRGYRPW stands 0.101 ± 0.37; under FNRCMFHFGDEVVKELL, -0.376 ± 0.91.

The substance HHLVLQRD yielded an amyloid nucleation score of 0.347 ± 0.28.

Consider RSVCYIKNPVVAREFLVLSA, for which the amyloid nucleation score entry was “inactive”. Under ELKSPCNVSPIWSRSRQTST stands 0.216 ± 0.68; under LTLICSSGEC, 2.14 ± 0.17; under EFFRVMPGNT, 3.68 ± 0.13.

The substance LDYLTTRKANVHRGCVALML registered an amyloid nucleation score of -1.27 ± 0.78. Under TCRFTHLLFWYFK stands 0.246 ± 0.97; under QYSCN, 1.72 ± 0.46; under FFYSNALLWSWIVGYSCTRL, 0.537 ± 0.44.

Take GKLSDINCLYSSDSLGCLGL: the amyloid nucleation score is 0.815 ± 0.9. Under LVLGAVV stands -0.104 ± 0.87; under SHTYG, 0.06 ± 0.59.

Take KNKGCGGKAEYTLAPIEISM: the amyloid nucleation score amounted to 0.364 ± 0.55. Under DCSFRCMYAIMLYVLCLSHN stands 0.422 ± 0.35; under RRRIEHAALVCV, 0.055 ± 1.1. Under FRSELMFSVLPFLGASSVAC stands 1.44 ± 0.69. Under LYNLGHDSVGDLSFFCLRGW stands -0.427 ± 0.36. Substance GKHSLSPVYLWYGNNY gave an amyloid nucleation score of 0.707 ± 0.52. Under KGYLLRWLGEVYFVNYGSNS stands -0.585 ± 0.84; under SNEVSGLVCQLTNVVYLLGL, 4.89 ± 0.052; under KSGTAFLFFKMI, 0.399 ± 0.31. Under ATKSLRIYLARVMHETSTFG stands -0.822 ± 0.61. Under KFWTGPIRYVN stands -0.149 ± 0.31; under EGTSPHMHSIRFTLSQLPSF, 0.236 ± 1.1. NGSVTNNKNHPFVDYGVRHE yielded an amyloid nucleation score of -0.468 ± 0.36. Under RSYCKRALMLDWFAISRMRL stands 0.082 ± 0.51; under ESAFHASVGALRMHTSSRVC, 1.09 ± 0.35; under WGTPLMV, 0.31 ± 0.63. Under IIASGHDFL stands -0.732 ± 0.87; under WCMGHNSYYVKEIVIDVLWL, “inactive”; under TFPGSHLFTFLMMEGSLNHG, 0.694 ± 0.64.

The substance IRLMRWGRCVGISVEGVC had an amyloid nucleation score of 0.789 ± 0.46.

On to YFSWLFPFIDLSRVSASMPT, for which the amyloid nucleation score came out at 2.69 ± 0.2. Substance IHVLADIYCVWGGLKEFWTS yielded an amyloid nucleation score of 0.374 ± 0.65. Under GSLLLMGRTMDVYQNRHFFH stands 0.651 ± 0.28; under REYETWLQSQRQNLSDLQK, 0.173 ± 0.33; under WTIWVKDSLVPVCTSF, -1.03 ± 1.2.

In the case of GLRTLEPYRYVIIMVPGQVA, the amyloid nucleation score is -0.164 ± 0.68. Under FTFSFLYFFQWCHTGAPARF stands 0.602 ± 0.73; under TTLWLVPYVC, 0.529 ± 0.58. Under ICFNFYITYSASDALSRTCY stands 8.287 ± 0.047.

The substance YSAVWRSMYTQNLWVPTGMG showed an amyloid nucleation score of 1.83 ± 0.27. Under YMLSLSPPRRC stands 0.25 ± 0.33.

GSVLKLYRGITHSRNERRGP yielded an amyloid nucleation score of -0.171 ± 1.1.

WSKTSDDSVWWTWTDGIMFV: the amyloid nucleation score stood at 1.92 ± 0.46.

As for CFRDGYSKLCGCYVSMRTGH, the amyloid nucleation score stood at 0.459 ± 0.53.

VMVRTCACFIR gave an amyloid nucleation score of 0.883 ± 0.51. Under FYFRHSVLMCKHLFQFDYKE stands 0.668 ± 0.45; under NGTFVLDVRIRSRRSERPLG, 4.09 ± 0.06; under WVYMANRVEYRRASRNMS, “inactive”. GLFFNNKYA displayed an amyloid nucleation score of 0.54 ± 0.84.

Substance MLWFSGCPRGGQRGVCESQG displayed an amyloid nucleation score of 0.284 ± 0.55. Under IFRTIERTVSIFNRSSR stands 0.222 ± 0.72. Under WLSSLARIWSRQMREYNS stands 0.64 ± 0.44; under HHSYKYCKLAFWTRSSKWNR, 0.7 ± 0.71.

In the case of QWVSMTEVYFVVNKRWMCSR, the amyloid nucleation score was -1.39 ± 1.6.

As to LSTDQLVSSLKCR, the amyloid nucleation score was found to be 0.404 ± 0.41. Under VYLFSVLVDVSRMSNGMLTR stands -0.211 ± 1.2; under FIVKKFIKSNRLVLMRGSPL, 0.669 ± 0.49; under GVVTLFTEYSSEPCRCGFRQ, -0.21 ± 0.53.
